Assay results as given in the supplement of paper PMC10567573.
± gives the standard deviation.

Test: protein stability index of a GFP-peptide fusion (GPS, HEK-293T) (PSI 1-6); higher = more stable
[1] = treatment: DMSO, c terminus: a fixed tail appended
[2] = treatment: MLN4924 1 uM, 8 h, c terminus: a fixed tail appended
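Further: 24-mer peptide tiles fused after GFP, lentivirally expressed, FACS-sorted into six equal bins by GFP/DsRed ratio, decoded by Illumina sequencing, PSI is the read-weighted mean bin number.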

Sequence	protein stability index [1]	protein stability index [2]	protein stability index (treatment: DMSO, c terminus: native)	protein stability index (treatment: MLN4924 1 uM, 8 h, c terminus: native)
QIQKYTDCLQFYVNSTLKELRRLF [RTN1]	2.73 ± 0.37	2.55 ± 0.31		
SPAEDFVLVAETTMARIRRVYVSG [APMAP]	2.22 ± 0.29	2.05 ± 0.42		
HGVELHSDVIEYAKQKLDFFIRTS [PCMTD2]	2.37 ± 0.2	2.48 ± 0.29		
HKYNTTSTSYSPLASLPLKADTKG [PLAGL1]	4.23 ± 0.16	4.41 ± 0.2		
SEIIQITTGSKELDKLLQGGIETG [RAD51]	4.11 ± 0.34	4.3 ± 0.26		
RWREGTKDSHDPLPSWAELLRPKY [PBXIP1]	2.5 ± 0.21	2.96 ± 0.3		
GNSISISALQSLLQHLIGLSNLTH [PRAME]	2.54 ± 0.036	2.62 ± 0.41		
NSQVHRETEDVDYGETDFHKQDGK [TMEM40]	5.54 ± 0.12	5.52 ± 0.17		
YNSSRFGEGVERELFVREPTGRLP [MYORG]	3.62 ± 0.22	3.73 ± 0.43		
PYGPPPDAVQTSLMDEGASSEKKR [RBBP5]	5.37 ± 0.25	5.463 ± 0.047		
CLLGLGSLVLILSLSYTVLIVGRI [SLC2A12]	3.06 ± 0.48	3.26 ± 0.38		
CQDSSGEVSCQCQLHPPRWYSRLQ	2.38 ± 0.28	2.81 ± 0.23		
QFYMFGWTHVTLLIVVTQSHLVIH [CDS2]	2.85 ± 0.37	3.31 ± 0.59		
IKWLKEAEEESSGGEEEDEDENIE [EIF5]	5.41 ± 0.14	5.49 ± 0.25		
HEEERINIYCLNCEVPTCSLCKVF [TRIM55]	2.95 ± 0.39	3.16 ± 0.32		
CLFSERDAAGAPRDASDPLAGAAL [SMAD6]	4 ± 0.46	4.33 ± 0.2		
EPGGPGWLPESDCETVTCCLFSER [SMAD6]	3.96 ± 0.35	4.16 ± 0.42		
GAGEGAAASPELSALEEAFRRFAV [TPPP]	3.58 ± 0.58	3.74 ± 0.44		
HHKVYDLTKFLEEHPGGEEVLREQ [CYB5A]	4.44 ± 0.27	4.65 ± 0.19		
LVSIRNNRNLQKFSLFGDISVLQQ [FBXO33]	2.17 ± 0.14	2.09 ± 0.29		
QDIAQEISEAFSQRVGFGDDFDED [CHMP4C]	5.62 ± 0.21	5.5 ± 0.18		
QDTEVFSWSDNERSSSRINIPERA [FAM104B]	4.62 ± 0.094	4.53 ± 0.067		
AYDEALAELHAHGPAAFVDYFERN [ZSWIM9]	3.73 ± 0.24	3.74 ± 0.34		

Sequence	protein stability index [1]	protein stability index [2]	protein stability index (treatment: DMSO, c terminus: native)	protein stability index (treatment: MLN4924 1 uM, 8 h, c terminus: native)
MEPGGARLRLQRTGGLGGERERQP [SOAT2]	4.58 ± 0.12	4.65 ± 0.21		
ARKQDMNTKRAIHTLAVMNDRLYA [KLHL14]	2.55 ± 0.24	2.93 ± 0.36		
VVACDFSPDGALLATASYDTRVYI [WSB1]	3.41 ± 0.6	2.74 ± 0.83		
TVLVSVTVFDANDNAPVFTLPEYR [PCDHGA10]	2.76 ± 0.43	2.58 ± 0.36		
SPVVVEKSNSYPHQLYTSSSHHSH [KMT2E]	3.76 ± 0.1	3.82 ± 0.38		
LELSCDKFPPEEELQREWLGNREA [CPN1]	4.95 ± 0.25	5.11 ± 0.16		
TTCSTPLLNSPPSFVCWSRGFMEM [AUP1]	2.21 ± 0.26	2.33 ± 0.31		
ASSQHSEGSRSSGSNRSGSDRRKE [DVL3]	5.37 ± 0.16	5.52 ± 0.16		
KQKGSEENLDEAREQKEKSPPDQP [ADD1]	5.68 ± 0.26	5.78 ± 0.15		
VAREYYSEADASHCIQQILEAVLH [CAMK2B]	2.29 ± 0.3	2.87 ± 0.49		
DLALDLGPQSRELTLKVLRSSSCG [C2CD2L]	3.28 ± 0.18	3.62 ± 0.34		
PLFTPQSPVTATLSDEDDGFVDLL [CDC25A]	4.65 ± 0.13	4.43 ± 0.38		
KVALEPQLWELGKVLRKAGLSAGY [LPCAT4]	2.27 ± 0.26	2.21 ± 0.36		
SENVVNRMKEPSSPPPAPTSSTFG [CHCHD6]	5.04 ± 0.2	5.3 ± 0.13		
HALRKKQLKRQKRDYIHSLKLLNV [FAM9B]	2.6 ± 0.42	2.84 ± 0.27		
DPVVNGERSGCALTDAVAPGNKGR [TCF25]	5.21 ± 0.21	5.32 ± 0.21		
GVSFHIDSAELEPGSQTAVKNSNR [FBXO34]	4.71 ± 0.26	5.03 ± 0.38		
CGSFYREPIILPCSHNLCQACARN [TRIM9]	2.22 ± 0.25	2.19 ± 0.33		
TKLEERSRVKCDQYWPSRGTETHG [PTPRD]	3.97 ± 0.14	3.71 ± 0.54		
RWSSDLNKHLTTHQGIKPYKCSWC [ZNF75A]	2.55 ± 0.45	2.73 ± 0.49		
GAKMTERGSVARPTQGPETPRSPE [PXN]	5.59 ± 0.13	5.38 ± 0.26		
GGACPAFLPSLRPPPLTSPSHGSL [NCF4]	3.59 ± 0.092	3.71 ± 0.28		
AIFIMSLNKRHSSGDGNSKLKSE [MFSD9]			2.64 ± 0.27	2.22 ± 0.15

Sequence	protein stability index [1]	protein stability index [2]	protein stability index (treatment: DMSO, c terminus: native)	protein stability index (treatment: MLN4924 1 uM, 8 h, c terminus: native)
QQENKVLKIELETYKLKCKALQEE [CCDC6]	4.28 ± 0.12	4.27 ± 0.14		
IKHVLQTFGPIPEFSRATAEKVNQ [CRYL1]	3.39 ± 0.44	3.43 ± 0.51		
SWIQLPPMQERRASFYACRLDKHL [KLHL14]	2.32 ± 0.29	2.26 ± 0.34		
PLYLLTWKIAPAMAAGNTVIAKPS [ALDH8A1]	2.04 ± 0.52	2.11 ± 0.4		
SEQEHFLIVPFGLLYSEVTASSLV [ADD1]	2.65 ± 0.57	2.92 ± 0.68		
HEEQLQRLKLLKDREVDAATSATS [FBF1]	5.18 ± 0.28	5.25 ± 0.24		
TPMNHQKAVNDETCKASHITSSVF [FBXO34]	3.75 ± 0.075	3.77 ± 0.1		
CGRYINGHMLQHHGNSGHPLVLSY [HDAC6]	2.51 ± 0.29	2.65 ± 0.77		
PSVRSSKDGKLLAATLLLALLSCC [TNFSF13B]	2.73 ± 0.66	2.81 ± 0.85		
YYPSGDAFASGSDDATCRLYDLRA [GNB5]	2.94 ± 0.33	3.38 ± 0.34		
EGSFNGSEKETMQFLNDRLASYLE [KRT33B]	3.43 ± 0.14	3.34 ± 0.21		
NLANCERLIEVEDMMVMGRKPDPM [SMTNL2]	3.36 ± 0.25	3.48 ± 0.31		
AWTLINLSFAAKQRELHSHVTNAM [DHCR7]	3.12 ± 0.34	3.05 ± 0.24		
MCSTLEHNCAHFCINIPGSYVCRC [MATN2]	3.18 ± 0.33	3.19 ± 0.44		
EATSHYIIELLASDAGSPSLHKHL [PCDHGC5]	2.08 ± 0.064	2.12 ± 0.11		
VQGIGIPLVTAIEIVSIWILSFIL [EDNRA]	3.02 ± 0.63	2.42 ± 0.49		
SSWKHGSGTQYVSTRQTQSWTAVT [C18orf25]	2.5 ± 0.11	2.52 ± 0.47		
QMPPVIVETARSHQRSSSESYTQS [PI4K2A]	4.6 ± 0.28	4.72 ± 0.16		
DFALINKLDIQCDLKTLSDDIKES [ATE1]	4.15 ± 0.14	4.18 ± 0.39		
TNSSSLRLPRQNSDGGQKNKPREH [WSB1]	5.02 ± 0.15	4.93 ± 0.072		
LLEATGGAAGRSHHLDEDEERERI [KCTD10]	5.25 ± 0.25	5.41 ± 0.35		
THHKLCTFILKNPPENSDSGTGKK [EIF5]	3.95 ± 0.27	4.28 ± 0.18		
GYWRVRLWNGDKYAATTTPFTPLH [TRIM39]	2.08 ± 0.42	2.35 ± 0.93		

Sequence	protein stability index [1]	protein stability index [2]	protein stability index (treatment: DMSO, c terminus: native)	protein stability index (treatment: MLN4924 1 uM, 8 h, c terminus: native)
TEGGNDDSDFRELHTAREFSEEDE [RTN2]	5.42 ± 0.36	5.13 ± 0.71		
RTIYHMFIALLILFILSTLVVDYI [SOAT1]	2.84 ± 1.7	2.17 ± 0.28		
GPMRPEQFSDEVEPATPEEGEPAT [GAGE1]	5.39 ± 0.2	5.266 ± 0.044		
IIMWDIGGRKGRTLLLQGHHDKVQ [WDFY1]	2.08 ± 0.55	2.2 ± 0.12		
PFNGDCRITKDNRRHCQACRLKRC [VDR]	3.19 ± 0.3	3.4 ± 0.34		
CIELYFDEKYSIEPSWECKFDHIE [NETO1]	2.13 ± 0.42	2.24 ± 0.25		
LKEGVRLDRVRGGRQKYKRRPEVD [ESRRA]	4.19 ± 0.29	4.43 ± 0.19		
CAGSTALQEPGEPQGPPASPSCPE [PXN]	5.15 ± 0.27	5.48 ± 0.18		
SGADTAKCGIHSMFPLHLAALNAH [ANKRD44]	2.07 ± 0.29	2.36 ± 0.11		
FHHIPSTCQRVNGIKVQNGGIVTD [SLC19A2]	2.47 ± 0.55	3 ± 0.41		
LARGIHVAGILSLLLGTAYSFYLF [POMT2]	2.6 ± 0.62	2.65 ± 0.47		
LKLARKAYHDPMLKLSIMSEEELT [NET1]	3.06 ± 0.2	3.14 ± 0.21		
TKAGHSLELIEPLIKFQVGLKKLN [VDR]	2.19 ± 0.38	2.42 ± 0.25		
IVANTMPTHLSNGQMSTPETPQPS [HNF4A]	4.43 ± 0.22	4.51 ± 0.15		
CYNCEEEAMYHCCWNTSYCSIKCQ [ZMYND11]	2.61 ± 0.52	2.79 ± 0.47		
LRQLGCKDGKNWNSNQATDIMETS [SPOPL]	4.25 ± 0.24	4.28 ± 0.1		
SSFPGSLPQETNLTLKVCKPQAPQ	4.09 ± 0.21	4.14 ± 0.38		
LEEALYEYQPLQIETYGPHVPELE [MNAT1]	3.25 ± 0.6	3.65 ± 0.47		
QRQAPGPARDYSQYYRTIEELQNK [KRT17]	4.07 ± 0.15	4.12 ± 0.063		
PRCPGSVNEKLPQREGTGKTVSLQ [SMOC2]	5.03 ± 0.14	5.03 ± 0.54		
